Here are results for one protein from publication doi:10.1101/2022.04.02.486822 (bioRxiv, 2022).

This data set deals with the molecule itself. The data set is described as follows: crystal structure.

B1: E. coli glyoxylate reductase/hydroxypyruvate reductase A (EcGhrA), wild type, His6-tagged (enzyme, UniProt P75913 1-312, looked up)
chain: MDIIFYHPTFDTQWWIEALRKAIPQARVRAWKSGDNDSADYALVWHPPVEMLAGRDLKAVFALGAGVDSILSKLQAHPEMLNPSVPLFRLEDTGMGEQMQEYAVSQVLHWFRRFDDYRIQQNSSHWQPLPEYHREDFTIGILGAGVLGSKVAQSLQTWRFPLRCWSRTRKSWPGVQSFAGREELSAFLSQCRVLINLLPNTPETVGIINQQLLEKLPDGAYLLNLARGVHVVEDDLLAALDSGKVKGAMLDVFNREPLPPESPLWQHPRVTITPHVAAITRPAEAVEYISRTIAQLEKGERVCGQVDRARGY
Turning to B1, the binding result is given as “binds”.
